T1: FcγR2a(H) (human, UniProt P12318 36-218)
T1 construct: also called human Fc-gamma receptor 2a, H form
T1 sequence (looked up): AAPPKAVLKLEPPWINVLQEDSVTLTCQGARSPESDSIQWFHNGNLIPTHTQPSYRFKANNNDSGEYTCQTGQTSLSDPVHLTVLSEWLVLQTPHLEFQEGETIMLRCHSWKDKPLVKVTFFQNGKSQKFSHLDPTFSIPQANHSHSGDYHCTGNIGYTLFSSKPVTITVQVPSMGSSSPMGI

B1: Antibody A (antibody, human IgG1, kappa)
heavy: QLQVQESGPGLVKPSETLSLTCTVSGGSISNSYFSWGWIRQPPGKGLEWIGSFYYGEKTYYNPSLKSRATISIDTSKSQFSLKLSSVTAADTAVYYCPRGPTMIRGVIDSWGQGTLVTVSSASTKGPSVFPLAPSSKSTSGGTAALGCLVKDYFPEPVTVSWNSGALTSGVHTFPAVLQSSGLYSLSSVVTVPSSSLGTQTYICNVNHKPSNTKVDKRVEPKSCDKTHTCPPCPAPEAEGAPSVFLFPPKPKDTLMISRTPEVTCVVVDVSHEDPEVKFNWYVDGVEVHNAKTKPREEQYNSTYRVVSVLTVLHQDWLNGKEYKCKVSNKALPSSIEKTISKAKGQPREPQVYTLPPSREEMTKNQVSLTCLVKGFYPSDIAVEWESNGQPENNYKTTPPVLDSDGSFFLYSKLTVDKSRWQQGNVFSCSVMHEALHNHYTQKSLSLSPGK
light: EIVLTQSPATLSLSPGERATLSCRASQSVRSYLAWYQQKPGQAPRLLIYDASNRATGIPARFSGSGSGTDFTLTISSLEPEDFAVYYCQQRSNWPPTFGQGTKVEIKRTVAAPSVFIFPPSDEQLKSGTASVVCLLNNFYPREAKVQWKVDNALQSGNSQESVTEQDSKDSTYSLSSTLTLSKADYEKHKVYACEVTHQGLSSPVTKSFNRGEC
notes: same variable regions as LY3022859; also called anti-TGFβ RII antibody IgG1 effector null
B2: LY3022859 (antibody, IgG1, V domains shown)
VH: QLQVQESGPGLVKPSETLSLTCTVSGGSISNSYFSWGWIRQPPGKGLEWIGSFYYGEKTYYNPSLKSRATISIDTSKSQFSLKLSSVTAADTAVYYCPRGPTMIRGVIDSWGQGTLVTVSS
VL: EIVLTQSPATLSLSPGERATLSCRASQSVRSYLAWYQQKPGQAPRLLIYDASNRATGIPARFSGSGSGTDFTLTISSLEPEDFAVYYCQQRSNWPPTFGQGTKVEIK
notes: the antibody is disclosed in WO 2010/053814; also called TGFβRII mAb LY3022859; anti-TGFβ RII antibody IgG1

Key:
[1] = biological target: human C1q (human, UniProt P02745 23-245; P02746 28-253; P02747 29-245); experiment: cell-based or functional assay
human C1q, sequence (P02745 23-245 limits assumed, chain 1 of 3): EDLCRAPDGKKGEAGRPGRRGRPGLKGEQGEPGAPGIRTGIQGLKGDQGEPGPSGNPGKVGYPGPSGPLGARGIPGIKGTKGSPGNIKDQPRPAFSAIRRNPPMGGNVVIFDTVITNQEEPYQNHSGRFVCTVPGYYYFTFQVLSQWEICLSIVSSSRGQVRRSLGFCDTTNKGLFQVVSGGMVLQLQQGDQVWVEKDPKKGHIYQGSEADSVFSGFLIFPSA
human C1q, sequence (P02746 28-253 limits assumed, chain 2 of 3): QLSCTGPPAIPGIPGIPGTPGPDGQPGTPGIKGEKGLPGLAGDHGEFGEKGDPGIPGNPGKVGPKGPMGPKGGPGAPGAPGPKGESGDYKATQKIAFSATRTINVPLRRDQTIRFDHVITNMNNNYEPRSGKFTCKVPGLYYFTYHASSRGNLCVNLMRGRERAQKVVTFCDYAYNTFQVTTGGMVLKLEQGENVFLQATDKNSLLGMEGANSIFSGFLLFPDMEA
human C1q, sequence (P02747 29-245 limits assumed, chain 3 of 3): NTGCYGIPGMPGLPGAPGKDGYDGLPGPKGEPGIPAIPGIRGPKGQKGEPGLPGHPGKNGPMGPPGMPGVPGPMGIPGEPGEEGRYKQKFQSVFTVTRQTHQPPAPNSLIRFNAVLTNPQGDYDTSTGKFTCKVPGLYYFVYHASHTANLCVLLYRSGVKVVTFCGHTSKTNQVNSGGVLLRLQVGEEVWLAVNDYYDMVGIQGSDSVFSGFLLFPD

[2] = biological target: T2, huTGFβ RIIFc (recombinant extracellular domain of human TGFβ RII fused to Fc) (human, UniProt P37173 23-166); experiment: ELISA, huTGFβ RIIFc coated, antibody titrated; Antibody A; binding ELISA
T2 construct: The Fc is not described; also called human TGFβ RIIFc; not shown: Fc part
T2 sequence (P37173 23-166): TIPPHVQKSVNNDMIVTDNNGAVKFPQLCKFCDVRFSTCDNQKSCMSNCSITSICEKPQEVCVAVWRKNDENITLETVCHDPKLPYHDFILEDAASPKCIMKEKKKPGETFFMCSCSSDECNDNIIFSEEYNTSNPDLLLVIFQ
Description: (§1) For binding assays, huTGFβ RIIFc was coated on microplates. […] After washing, plates were incubated with HRP-labelled goat anti-rat Fab detection antibody and subsequently TMB peroxidase substrate was added to the wells for color development. The values of absorbance at 405 nm were read on a microtiter plate reader (Molecular Devices Corp). EC₅₀ of the antibodies was analyzed using GraphPad Prism.

[3] = biological target: T3, FcγR1 (human, UniProt P12314 16-288); experiment: solid phase binding assay (Meso Scale), receptor coated, antibody titrated
T3 construct: also called human Fc-gamma receptor 1
T3 sequence (P12314 16-288): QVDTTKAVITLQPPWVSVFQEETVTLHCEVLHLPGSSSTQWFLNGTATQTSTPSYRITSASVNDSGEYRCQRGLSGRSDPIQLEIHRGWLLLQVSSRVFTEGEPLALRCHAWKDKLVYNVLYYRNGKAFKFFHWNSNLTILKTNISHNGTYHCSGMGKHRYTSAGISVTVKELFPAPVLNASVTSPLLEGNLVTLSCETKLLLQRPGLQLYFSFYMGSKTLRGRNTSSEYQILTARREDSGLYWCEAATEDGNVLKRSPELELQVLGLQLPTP
Description: (§2) Receptor protein (50 ng/well) was added to the wells of a Meso Scale standard bare plate in PBS. […] The plates were washed three times in PBS/0.05% Tween-20. Stock solutions of all antibodies were prepared at 0.5 mg/mL in 1% MSD blocker A in PBS-Tween and serially diluted 1:3. The indicated antibodies were added to each reaction well. Recombinant protein and antibodies were incubated for 2 hours at room temperature and then the plates were washed 2 times with PBS/0.05% Tween. Secondary antibody was added to each well. After one hour at room temperature with agitation followed by 40 mins at room temperature, the plates were washed 2 times with PBS/0.05% Tween-20. For detection, 150 μL of a 1× Read Buffer (MSD cat # R92TC-1, 4×) were added to each well. The plate was then read using a Sector Imager 2400.

[4] = biological target: T1, FcγR2a(H); experiment: as above
Description: as §2

[5] = biological target: T4, FcγR3a (V) (human, UniProt P08637 17-208); experiment: as above
T4 construct: V158 allotype as printed
T4 sequence (P08637 17-208 F176V): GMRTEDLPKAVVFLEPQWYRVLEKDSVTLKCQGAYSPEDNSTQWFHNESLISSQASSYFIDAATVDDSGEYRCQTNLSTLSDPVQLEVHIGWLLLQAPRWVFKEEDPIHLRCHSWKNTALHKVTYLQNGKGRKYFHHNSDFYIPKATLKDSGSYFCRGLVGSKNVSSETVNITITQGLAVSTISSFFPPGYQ
Description: as §2

[6] = biological target: T5, TGFβ RII AP (UniProt P37173 23-166); experiment: ligand blocking ELISA, TGFβ RII AP binding to coated TGFβ ligand 1 (competitor)
T5 sequence (P37173 23-166): as the sequence (P37173 23-166) above
Description: (§3) A serial dilution of purified antibodies was incubated with TGFβ RII AP for 1 h in TGFβ-coated plates. After wash, p-nitrophenyl phosphate substrate was added to the wells for color development. The values of absorbance at 405 nm were read on a microtiter plate reader (Molecular Devices Corp) for the quantification of TGFβ RII binding to TGFβ. IC50 of the antibodies was analyzed using GraphPad Prism.

[7] = biological target: T5, TGFβ RII AP; experiment: ligand blocking ELISA, TGFβ RII AP binding to coated TGFβ ligand 2 (competitor)
Description: as §3

[8] = biological target: T5, TGFβ RII AP; experiment: ligand blocking ELISA, TGFβ RII AP binding to coated TGFβ ligand 3 (competitor)
Description: as §3

[9] = biological target: T2, huTGFβ RIIFc (recombinant extracellular …); experiment: SPR (Biacore), TGFβ RII-Fc extracellular domain immobilized at low density; Antibody A; KD
Description: (§4) The association (kon) and dissociation (koff) rates were determined using BIAevaluation 2.1 software.

[10] = biological target: T2, huTGFβ RIIFc (recombinant extracellular …); experiment: ELISA, huTGFβ RIIFc coated, antibody titrated; LY3022859; binding ELISA
Description: as §1

[11] = biological target: T2, huTGFβ RIIFc (recombinant extracellular …); experiment: SPR (Biacore), TGFβ RII-Fc extracellular domain immobilized at low density; LY3022859; KD
Description: as §4

Binder	CDC activity EC50 (nM), BxPC3 target cells, human complement [1]	CDC activity EC50 (nM), HEK293 target cells, human complement [1]	CDC activity EC50 (nM), MDA-MB-231 target cells, human complement [1]	CDC activity EC50 (nM), TGFRβII-HEK target cells, human complement [1]	EC50 [2]	EC50 [3]	EC50 [4]	EC50 [5]	IC50 [6]	IC50 [7]	IC50 [8]	Kd [9]	EC50 [10]	Kd [11]
B1	> 200 nM	> 200 nM	> 200 nM	> 200 nM	0.277 nM	> 2000 nM	> 2000 nM	> 2000 nM	4.83 nM	4.4 nM	4.36 nM	0.0222 nM	–	–
B2	–	–	–	–	–	–	–	–	5.48 nM	4.45 nM	4.41 nM	–	0.306 nM	0.0106 nM
